From patent US9567641B2, “Combination therapy for the treatment of cancer using an anti-C-met antibody” (SAMSUNG ELECTRONICS CO., LTD., priority 2013, dated 2017)

Columns and labels:
Format in all cases: cell-based
[1] = tested on: MKN45 gastric cancer cell line; test: Synthetic lethal screening: siRNA plus anti-c-Met antibody, sensitization index (SI) by CellTiter Blue; settings: MKN45 cells, 5 days
Procedure: To search genes capable of increasing efficacy when suppressed together with an anti-c-Met antibody, synthetic lethal screening was conducted using MKN45 gastric cancer cell line (JCRB, JCRB0254). The synthetic lethal screening was conducted using a total of 1310 genes related to c-Met including 638 genes of EGFR library (Science Signaling, 3, ra67).
First, 0.3 ul of RNAiMax (Life Technologies) and a mixture of two different kinds of 20 nM siRNAs (Qiagen) were added to a 96-well plate, which was incubated at a room temperature for 15 min, wherein RNAiMax and siRNAs were diluted in Opti-MEM (Life Technologies) and a total mixture volume was adjusted to reach 22 ul or so. 78 ul of MKN45 cells diluted in a 5% FBS-containing RPMI1640 medium (GIBCO) were seeded onto each well of the 96-well plate so that each well contained 5000 cells. […]
After 5 days, 20 ul of a diluting solution of CellTiter Blue (Promega, G8081) and HBSS at 1:1 was added to each well, which was incubated at 37° C. for 4 hours. Then, the number of cells was counted via fluorescence signals (560/590 nm), which were measured using Envision 2104 Multi-label Reader (Perkin Elmer).
Since an increase degree in the efficacy of an anti-c-Met antibody to be caused by the expression suppression of each gene was measured as a reduction in cell viability, SI (sensitization index) was calculated. […]

[2] = tested on: HCC1806 breast cancer cells; test: Cell viability, CellTiter Glo, combination with L3-1Y/IgG2 antibody
Procedure: The efficacy of the combination administration of ITGB3 siRNA and L3-1Y/IgG2 antibody was examined in a breast cancer cell line on which the anti-c-Met antibody alone has no effects. For this, HCC1806 (ATCC, CRL-2335) and HCC1954 (ATCC, CRL-2338) cells were used.
As a control group, All Negative control siRNA (Qiagen, cat. no. 1027281) was used, and as a target siRNA, a mixture of two kinds of siRNAs (see Table 7) that had effects during the screening was used. Transfection was carried out by the same procedures as Example 3.1 and after 24 hours, the cultured cells were treated with L3-1Y/IgG2 antibody at 0 ug/ml, 0.016 ug/ml, 0.08 ug/ml, 0.4 ug/ml, or 2 ug/ml. 72 hours later after the treatment, 100 uL of CellTiter Glo solution (Promega, G7572) was added to each well, which was allowed to stay at a room temperature for 30 min. The number of cells was counted via luminescence signals, which were recorded using Envision 2104 Multi-label Reader (Perkin Elmer).
To verify the effect of the combination therapy using ITGB3 inhibitor and anti-c-Met antibody in breast cancer cells on which the anti-c-Met antibody has no effects, HCC1806 (ATCC, CRL-2335) cells were used. The HCC 1806 cells are a cell line known to have high amounts of c-Met.
5000 cells of HCC1806 cells were seeded onto a 96-well plate, and 24 hours after, the plate was treated with L3-1Y/IgG2 antibody and an ITGB3 inhibitor, cilengitide (Merck KGaA, EMD 121974). 72 hours later after the treatment, a change in the number of cells was measured using CellTiter Glo assay. Cilengitide was treated at a fixed concentration of 10 uM, and the L3-1Y/IgG2 antibody was treated by ⅕ dilution each time starting from 2 ug/ml. For comparison, the same test was conducted using L3-1Y/IgG2 antibody alone.
The efficacy of combination administration was examined in a breast cancer cell line on which the anti-c-Met antibody has no effects. For this, HCC1806 (ATCC, CRL-2335) cells were used.
5000 HCC1806 cells were seeded onto a 96-well plate and 24 hours after, the plate was treated with L3-1Y/IgG2 antibody and an AKT inhibitor, MK-2206 (Merck & Co Inc) and 72 hours later after the antibody treatment, a change in the number of cells was measured using CellTiter Glo assay. MK-2206 was treated at a fixed concentration of 10 uM, and the L3-1Y/IgG2 antibody was treated by ⅕ dilution each time starting from 2 ug/ml. For comparison, the same test was conducted using L3-1Y/IgG2 antibody alone.

[3] = tested on: L3-1Y/IgG2 antibody resistance acquired EBC1 lung cancer cells; test: Cell viability, CellTiter Glo, resistance-acquired cell line; settings: L3-1Y/IgG2 antibody alone
Procedure: To verify whether or not the resistance acquired by repetitive administration of anti-c-Met antibody can be overcome by BCL2L1 inhibition, L3-1Y/IgG2 antibody resistance acquired EBC1 cells, where the resistance against L3-1Y/IgG2 antibody is acquired by treating EBC1 lung cancer cells (JCRB, JCRB0820) with the L3-1Y/IgG2 antibody for at least 3 months, were used. The L3-1Y/IgG2 antibody resistance acquired EBC1 lung cancer cells were prepared referring to Example 4.3.
5000 cells of the L3-1Y/IgG2 antibody resistance acquired EBC1 cells were seeded onto a 96-well plate and 24 hours after, the plate was treated with a BCL2 family inhibitor, ABT-263 (Abbott Laboratories) and 72 hours later after the antibody treatment, a change in the number of cells was measured using CellTiter Glo assay. ABT-263 was treated at a fixed concentration of 0.5 uM, and the L3-1Y/IgG2 antibody was treated by ⅕ dilution each time starting from 2 ug/ml.

B1: L3-1Y/IgG2: anti-c-Met antibody: huAbF46-H4-A1 heavy chain variable region, human IgG2 hinge and constant region, kappa light chain with H36Y (antibody)
heavy: EVQLVESGGGLVQPGGSLRLSCAASGFTFTDYYMSWVRQAPGKGLEWLGFIRNKANGYTTEYSASVKGRFTISRDNSKNTLYLQMNSLRAEDTAVYYCARDNWFAYWGQGTLVTVSSASTKGPSVFPLAPCSRSTSESTAALGCLVKDYFPEPVTVSWNSGALTSGVHTFPAVLQSSGLYSLSSVVTVPSSNFGTQTYTCNVDHKPSNTKVDKTVERKCCVECPPCPAPPVAGPSVFLFPPKPKDTLMISRTPEVTCVVVDVSHEDPEVQFNWYVDGVEVHNAKTKPREEQFNSTFRVVSVLTVVHQDWLNGKEYKCKVSNKGLPAPIEKTISKTKGQPREPQVYTLPPSREEMTKNQVSLTCLVKGFYPSDIAVEWESNGQPENNYKTTPPMLDSDGSFFLYSKLTVDKSRWQQGNVFSCSVMHEALHNHYTQKSLSLSPGK
light: DIQMTQSPSSLSASVGDRVTITCKSSQSLLASGNQNNYLAWYQQKPGKAPKMLIIWASTRVSGVPSRFSGSGSGTDFTLTISSLQPEDFATYYCQQSYSRPYTFGQGTKVEIKRTVAAPSVFIFPPSDEQLKSGTASVVCLLNNFYPREAKVQWKVDNALQSGNSQESVTEQDSKDSTYSLSSTLTLSKADYEKHKVYACEVTHQGLSSPVTKSFNRGEC
Which “final concentration that is approximately IC25~IC35” value [1] does the source give for B1 here?
Its value is about 0.0625 μl/ml.

And the “growth inhibitory effect (cell viability)” value ([2]; L3-1Y/IgG2 antibody alone (1/5 dilutions from 2 ug/ml), 72 h)?
The value was “did not occur”.

And the “cancer cell growth inhibitory efficacy (cell viability)” value ([2]; L3-1Y/IgG2 antibody alone (negative control siRNA))?
The value was “did not occur”.

What about the “cancer cell growth inhibitory effect (cell viability)” value [3] of the same molecule?
Its value is “did not occur”.
